Test results published in US20160106861A1, “AXL ANTIBODY-DRUG CONJUGATE AND ITS USE FOR THE TREATMENT OF CANCER” (PIERRE FABRE MEDICAMENT, priority 2013, published 2016).
Numbering of substitutions follows the chain as printed.

Assays:
[1] = target: T1, recombinant human Axl-Fc (R and D Systems, cat N° 154AL/CF) (human, UniProt P30530 26-451); assay: ELISA on coated rhAxl-Fc
T1 construct: Bought protein; also called rhAxl-Fc; rh Axl-Fc protein; not shown: Fc of human IgG (coating control with anti-human IgG Fc)
T1 sequence: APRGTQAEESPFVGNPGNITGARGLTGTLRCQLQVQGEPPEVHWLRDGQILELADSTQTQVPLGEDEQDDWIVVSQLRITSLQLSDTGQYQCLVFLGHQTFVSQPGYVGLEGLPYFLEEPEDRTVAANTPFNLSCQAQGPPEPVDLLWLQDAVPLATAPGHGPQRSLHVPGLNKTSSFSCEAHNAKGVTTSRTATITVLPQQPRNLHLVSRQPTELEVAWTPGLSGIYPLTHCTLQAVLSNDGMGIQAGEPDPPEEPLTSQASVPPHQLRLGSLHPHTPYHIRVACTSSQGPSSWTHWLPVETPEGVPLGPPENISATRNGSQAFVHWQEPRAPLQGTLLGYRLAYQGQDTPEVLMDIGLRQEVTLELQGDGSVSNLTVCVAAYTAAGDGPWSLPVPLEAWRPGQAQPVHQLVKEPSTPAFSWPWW

[2] = target: T2, rhAxl-Fc protein (Homo sapiens, UniProt P30530); assay: ELISA binding on immobilized rhAxl-Fc protein; conditions: starting concentration 5 μg/ml, 1/2 serial dilutions
T2 construct: purchased R and D Systems 154AL/CF
T2 sequence (P30530 26-451 limits assumed): T1 sequence with N241D
Method: Briefly, the recombinant human Axl-Fc (R and D systems, cat N° 154AL/CF), rhDtk (R and D Systems, cat N° 859-DK) or rhMer-Fc (R and D Systems, cat N° 891-MR) proteins were coated overnight at 4° C. to Immulon II 96-well plates and, after a 1 h blocking step with a 0.5% gelatine solution, 1613F12 was added for an additional 1 h at 37° C. at starting concentration of 5 μg/ml (3.33 10^−8M). Then ½ serial dilutions were done over 12 columns. Plates were washed and a goat anti-mouse (Jackson) specific IgG-HRP was added for 1 h at 37° C. Reaction development was performed using the TMB substrate solution. The isotype control antibody mIgG1 and the commercial anti-Axl Mab 154 antibody were also used in parallel. Coating controls were performed in presence of a goat anti-human IgG Fc polyclonal serum labelled with HRP (Jackson, ref 109-035-098) and/or in presence of a HRP-coupled anti-Histidine antibody (R and D Systems, ref: MAB050H).

[3] = system: SN12C cells; assay: Internalization study by fluorescent immunocytochemistry (confocal microscopy); type: cell-based, human; conditions: 10 μg/ml, 1 h and 2 h at 37° C.
Method: Briefly, SN12C tumor cell line was cultured in RMPI1640 with 1% L-glutamine and 10% of FCS for 3 days before experiment. Cells were then detached using trypsin and plated in 6-multiwell plate containing coverslide in RPMI1640 with 1% L-glutamine and 5% FCS. The next day, 1613F12 was added at 10 μg/ml. Cells treated with an irrelevant antibody were also included. The cells were then incubated for 1 h and 2 h at 37° C., 5% CO2. For T 0 h, cells were incubated for 30 minutes at 4° C. to determine antibody binding on cell surface. Cells were washed with PBS and fixed with paraformaldehyde for 15 minutes. Cells were rinsed and incubated with a goat anti-mouse IgG Alexa 488 antibody for 60 minutes at 4° C. to identify remaining antibody on the cell surface. To follow antibody penetration into the cells, cells were fixed and permeabilized with saponin. A goat anti-mouse IgG Alexa 488 (Invitrogen) was used to stained both the membrane and the intracellular antibody. […] Cells were washed three times and nuclei were stained using Draq5. After staining, cells were mounted in Prolong Gold mounting medium (Invitrogen) and analyzed by using a Zeiss LSM 510 confocal microscope.

[4] = target: T3, human Axl receptor on the surface of human tumor cells (human, UniProt P30530 26-894); assay: flow cytometry on human tumor cells
T3 construct: Endogenous Axl on human tumor cell lines (SN12C, Calu-1, MDA-MB435S, MDA-MB231, NCI-H125, Panc1); also called cell-surface Axl; membrane Axl receptor
T3 sequence: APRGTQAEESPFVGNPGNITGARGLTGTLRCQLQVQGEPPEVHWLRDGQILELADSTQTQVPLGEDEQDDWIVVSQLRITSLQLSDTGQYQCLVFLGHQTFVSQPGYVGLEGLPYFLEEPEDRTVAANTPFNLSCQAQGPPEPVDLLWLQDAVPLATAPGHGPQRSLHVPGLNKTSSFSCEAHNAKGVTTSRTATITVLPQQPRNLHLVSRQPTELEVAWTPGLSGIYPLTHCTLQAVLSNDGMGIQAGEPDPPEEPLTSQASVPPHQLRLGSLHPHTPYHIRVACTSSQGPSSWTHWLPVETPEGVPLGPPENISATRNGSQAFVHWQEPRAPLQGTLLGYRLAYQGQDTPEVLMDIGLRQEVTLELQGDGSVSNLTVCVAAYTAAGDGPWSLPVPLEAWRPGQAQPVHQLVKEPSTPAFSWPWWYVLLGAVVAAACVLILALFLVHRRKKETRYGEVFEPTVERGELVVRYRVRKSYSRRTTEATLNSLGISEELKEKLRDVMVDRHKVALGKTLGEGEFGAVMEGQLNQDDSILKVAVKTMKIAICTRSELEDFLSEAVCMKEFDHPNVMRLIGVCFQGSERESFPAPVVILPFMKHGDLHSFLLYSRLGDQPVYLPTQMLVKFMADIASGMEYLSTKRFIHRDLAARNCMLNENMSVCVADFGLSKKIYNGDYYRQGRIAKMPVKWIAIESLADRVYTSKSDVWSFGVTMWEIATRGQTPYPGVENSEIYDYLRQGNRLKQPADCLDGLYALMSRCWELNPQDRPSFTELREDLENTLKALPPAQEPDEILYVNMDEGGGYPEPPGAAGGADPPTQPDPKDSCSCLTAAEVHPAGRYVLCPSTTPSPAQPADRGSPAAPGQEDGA

B1: m1613F12 (murine 1613F12, hybridoma CNCM I-4505) (antibody, V domains shown)
VH: EVHLQQSGAELVKPGASVKLSCTASGFNIRDTYIHWVKQRPEQGLEWIGRLDPANGHTKYGPNFQGRATMTSDTSSNTAYLQLSSLTSEDTAVYYCARGAYYYGSSGLFYFDYWGQGTTLSVSS
VL: DVQITQSPSYLATSPGETITINCRASKSISKYLAWYQEKPGKTNKLLIYSGSTLQSGVPSRFSGSGSGTDFTLTISSLEPEDFAMYFCQQHHEYPLTFGAGTELELK
notes: Murine monoclonal antibody; also called Axl antibody
binding result [1]: binds | binding on rhAxl-Fc protein (ELISA) [2]: only binds to the rhAxl-Fc protein | internalization (membrane and intracellular staining) [3]: internalization of 1613F12 into SN12C cells | binding result [4]: binds
